Laboratory results published in patent publication US20090136507A1 (published 2009).

Legend:
Experiment in all cases: yeast two-hybrid screens, LRP5 cytoplasmic domain bait against brain, HeLa and TE85 prey cDNA libraries
alpha-actinin (ACTN1) = target: T1, alpha-actinin (ACTN1) (Homo sapiens (Human), UniProt P12814 1-892, limits assumed)
T1 construct: Yeast two-hybrid prey; also called α-actinin
From the text: (§1) In order to identify cytoplasmic Zmax1 (LRP5) signaling pathways, the cytoplasmic domain of Zmax1 (LRP5) was subcloned into two bait vectors. The first vector was pDBleu, which was used to screen a brain, and Hela prey cDNA library cloned into the vector pPC86 (Clontech). The second bait vector used was pDBtrp, which was used to screen a cDNA prey library derived from the TE85 osteosarcoma cell line in vector pOP46. Another suitable vector which is widely available, is p86 (Gibco, Iest™ System). Standard techniques known to those skilled in the art were used as described in Fields and Song, 1989 Nature 340: 245-246; U.S. Pat. No. 5,283,173 by Fields and Song; Johnston, 1987 Microbiol. Rev. 51: 458-476; Keegan et al., 1986 Science 231: 699-704; Durfee et al., 1993 Genes Dev. 7: 555-569; Chien et al., 1991 Proc. Natl. Acad. Sci. USA 88: 9578-9582; Fields et al., 1994 Trends in Genetics 10: 286-292; and Gyuris et al., 1993 Cell 75: 791-803. The bait construct and prey cDNA libraries were transformed into yeast using standard procedures.
(§2) The frozen prey library was thawed, and the yeast cells reactivated by growing them in 150 ml YEPD medium with 2% glucose for 2 hrs at 30° C. A filter unit was sterilized with 70% ethanol and washed with sterile water to remove the ethanol. The cell densities of both bait and prey cultures were measured by determining the OD at 600 nm. An appropriate volume of yeast cells that corresponded to a cell number of 1 ml of OD 600=4 of each yeast strain, bait and prey (library) was placed in a 50 ml Falcon tube. The mixture was then filtered through the sterilized filter unit. The filter was then transferred onto a prewarmed YEPD agar plate with the cell side up, removing all air bubbles underneath the filter. Plates were then incubated at 30° C. for 6 hrs. One filter was transferred into a 50 ml Falcon tube, and 10 ml of SD with 2% Glucose was added; cells were resuspended by vortexing for 10 sec. […]

Axin (AXIN) = target: T2, Axin (AXIN) (Homo sapiens (Human), UniProt O15169 1-862, limits assumed)
T2 construct: Yeast two-hybrid prey
T2 sequence (O15169 other isoform, or with tags, fused parts or gaps limits assumed): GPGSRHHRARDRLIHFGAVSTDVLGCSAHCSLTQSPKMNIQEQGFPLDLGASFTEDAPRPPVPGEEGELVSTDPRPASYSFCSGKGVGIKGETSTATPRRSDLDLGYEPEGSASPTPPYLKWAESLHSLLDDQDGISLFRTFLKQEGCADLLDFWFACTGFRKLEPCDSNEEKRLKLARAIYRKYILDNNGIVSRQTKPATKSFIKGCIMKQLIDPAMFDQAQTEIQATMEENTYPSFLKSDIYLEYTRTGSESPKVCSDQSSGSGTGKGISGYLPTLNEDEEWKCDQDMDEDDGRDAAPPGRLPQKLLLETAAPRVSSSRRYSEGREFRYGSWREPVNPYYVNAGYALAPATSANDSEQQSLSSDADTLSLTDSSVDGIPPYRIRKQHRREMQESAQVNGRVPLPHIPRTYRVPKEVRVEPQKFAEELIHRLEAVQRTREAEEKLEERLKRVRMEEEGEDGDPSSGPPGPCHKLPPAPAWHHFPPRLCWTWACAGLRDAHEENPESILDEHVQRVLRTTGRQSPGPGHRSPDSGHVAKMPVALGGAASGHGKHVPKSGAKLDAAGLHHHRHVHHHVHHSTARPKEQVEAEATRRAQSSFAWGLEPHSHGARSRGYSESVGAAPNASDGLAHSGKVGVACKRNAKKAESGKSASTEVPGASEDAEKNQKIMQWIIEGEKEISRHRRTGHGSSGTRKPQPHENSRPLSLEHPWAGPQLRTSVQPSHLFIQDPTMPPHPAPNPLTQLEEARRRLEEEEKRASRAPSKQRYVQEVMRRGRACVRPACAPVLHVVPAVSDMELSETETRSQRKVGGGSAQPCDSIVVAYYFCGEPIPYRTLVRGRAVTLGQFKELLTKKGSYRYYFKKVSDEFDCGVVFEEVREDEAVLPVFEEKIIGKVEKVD
From the text: as §1, §2

Zyxin (ZYX) = target: T3, Zyxin (ZYX) (Homo sapiens (Human), UniProt Q15942 2-572, limits assumed)
T3 construct: Yeast two-hybrid prey
T3 sequence: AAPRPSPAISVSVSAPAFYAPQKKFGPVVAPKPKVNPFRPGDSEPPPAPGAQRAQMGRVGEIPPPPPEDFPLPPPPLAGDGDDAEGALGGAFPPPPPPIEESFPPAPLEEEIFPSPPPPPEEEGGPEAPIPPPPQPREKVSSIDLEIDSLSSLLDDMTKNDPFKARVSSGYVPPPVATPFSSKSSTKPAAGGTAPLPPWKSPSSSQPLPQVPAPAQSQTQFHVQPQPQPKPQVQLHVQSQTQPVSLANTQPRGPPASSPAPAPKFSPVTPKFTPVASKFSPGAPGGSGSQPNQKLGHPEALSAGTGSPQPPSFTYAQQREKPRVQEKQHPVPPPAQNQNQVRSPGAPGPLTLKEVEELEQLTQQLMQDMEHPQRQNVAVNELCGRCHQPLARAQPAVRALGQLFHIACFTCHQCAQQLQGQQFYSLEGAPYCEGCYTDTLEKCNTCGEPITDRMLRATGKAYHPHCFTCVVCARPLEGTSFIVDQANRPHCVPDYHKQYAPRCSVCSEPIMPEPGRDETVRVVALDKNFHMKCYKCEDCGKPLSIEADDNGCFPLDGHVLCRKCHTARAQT
From the text: as §1, §2

Measured: binding result

T1 sequence (P12814 whole entry): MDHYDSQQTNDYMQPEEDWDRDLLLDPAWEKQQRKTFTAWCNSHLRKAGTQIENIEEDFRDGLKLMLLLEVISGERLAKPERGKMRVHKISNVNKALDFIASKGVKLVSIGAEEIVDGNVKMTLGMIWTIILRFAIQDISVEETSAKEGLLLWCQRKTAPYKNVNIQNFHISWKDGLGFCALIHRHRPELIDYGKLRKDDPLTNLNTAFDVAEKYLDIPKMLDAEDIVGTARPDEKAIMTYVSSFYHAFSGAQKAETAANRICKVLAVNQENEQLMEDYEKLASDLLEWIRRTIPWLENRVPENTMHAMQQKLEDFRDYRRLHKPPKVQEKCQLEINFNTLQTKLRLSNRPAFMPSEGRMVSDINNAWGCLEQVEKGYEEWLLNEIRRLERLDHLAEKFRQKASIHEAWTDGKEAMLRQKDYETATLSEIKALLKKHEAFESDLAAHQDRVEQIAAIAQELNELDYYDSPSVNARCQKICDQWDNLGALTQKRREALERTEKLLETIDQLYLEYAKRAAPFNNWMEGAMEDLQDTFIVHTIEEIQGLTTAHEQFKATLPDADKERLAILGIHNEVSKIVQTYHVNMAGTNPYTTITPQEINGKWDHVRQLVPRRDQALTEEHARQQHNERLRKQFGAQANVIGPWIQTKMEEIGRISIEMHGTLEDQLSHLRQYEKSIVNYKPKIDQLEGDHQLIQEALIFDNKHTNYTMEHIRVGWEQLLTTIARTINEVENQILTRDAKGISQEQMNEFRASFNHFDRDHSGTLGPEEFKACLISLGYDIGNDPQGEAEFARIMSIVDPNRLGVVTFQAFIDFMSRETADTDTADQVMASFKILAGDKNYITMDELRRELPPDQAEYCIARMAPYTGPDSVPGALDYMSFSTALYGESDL

B1: Zmax1 (LRP5) cytoplasmic domain bait (entire cytoplasmic domain and a portion of the transmembrane domain) (receptor)
chain: RVVCQRYAGANGPFPHEYVSGTPHVPLNFIAPGGSQHGPFTGIACGKSMMSSVSLMGGRGGVPLYDRNHVTGASSSSSSSTKATLYPPILNPPPSPATDPSLYNMDMFYSSNIPATVRPYRPYIIRGMAPPTTPCSTDVCDSDYSASRWKASKYYLDLNSDSDPYPPPPTPHSQYLSAEDSCPPSPATERSYFHLFPPPPSPCTDSS
notes: Yeast two-hybrid bait; also called cytoplasmic domain of Zmax1 (LRP5); cytoplasmic domain of LRP5
binds: all assays above
